Experimental data published in patent US20150353950A1, “TRANSGENIC PLANTS” (Durham University, priority 2012, published 2015).

T1: GID1a (Arabidopsis thaliana, UniProt Q9MAA7)
T1 construct: The GID1a ORF was amplified by PCR from whole cDNAs from seedlings with oligos LC73 and LC74; made in house; host or cells: E. coli
T1 sequence (Q9MAA7 1-345): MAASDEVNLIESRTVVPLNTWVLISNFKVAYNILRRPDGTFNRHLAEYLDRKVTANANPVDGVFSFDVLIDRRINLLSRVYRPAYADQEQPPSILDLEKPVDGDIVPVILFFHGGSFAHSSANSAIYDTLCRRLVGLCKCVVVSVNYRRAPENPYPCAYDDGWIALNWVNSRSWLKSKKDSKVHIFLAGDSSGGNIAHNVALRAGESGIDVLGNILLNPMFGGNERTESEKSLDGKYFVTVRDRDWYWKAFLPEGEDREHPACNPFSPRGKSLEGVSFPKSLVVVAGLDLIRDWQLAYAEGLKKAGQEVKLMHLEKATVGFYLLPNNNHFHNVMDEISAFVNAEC

T2: SUMOylated GFP:RGA (plant-derived)
T2 chain 1: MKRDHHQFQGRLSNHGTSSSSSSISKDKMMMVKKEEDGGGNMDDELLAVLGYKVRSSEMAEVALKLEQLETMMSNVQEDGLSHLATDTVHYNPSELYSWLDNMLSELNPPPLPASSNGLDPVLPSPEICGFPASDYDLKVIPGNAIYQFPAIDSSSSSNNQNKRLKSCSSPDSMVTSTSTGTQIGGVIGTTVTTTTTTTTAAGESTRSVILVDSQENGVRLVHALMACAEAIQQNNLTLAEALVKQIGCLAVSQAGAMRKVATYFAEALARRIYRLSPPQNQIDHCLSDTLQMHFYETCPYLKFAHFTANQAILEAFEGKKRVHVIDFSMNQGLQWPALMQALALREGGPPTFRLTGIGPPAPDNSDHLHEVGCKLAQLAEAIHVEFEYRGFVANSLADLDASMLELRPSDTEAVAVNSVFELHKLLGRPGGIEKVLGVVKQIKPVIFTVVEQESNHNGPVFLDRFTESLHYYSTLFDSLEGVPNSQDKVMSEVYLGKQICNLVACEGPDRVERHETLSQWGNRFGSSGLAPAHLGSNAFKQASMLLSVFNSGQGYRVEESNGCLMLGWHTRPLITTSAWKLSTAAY
T2 chain 2: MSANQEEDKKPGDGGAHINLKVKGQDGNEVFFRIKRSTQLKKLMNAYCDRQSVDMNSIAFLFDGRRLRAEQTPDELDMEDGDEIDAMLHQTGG


Legend:
SUMO1 = target: T3, SUMO1 (Arabidopsis thaliana, UniProt P55852); test: Far-western / peptide array of GID1 SIM peptides probed with SUMO1; assay type: binding; details: for SIM-SUMO1 interaction (far-western): 1 μg peptide spotted on PVDF, probed with His:proAtSUMO1 (10 μg/ml); for interaction with SUMO1 (peptide array): peptide arrays of GID1 SIMs
T3 construct: His (N); made in house; host or cells: E. coli
Experimental: FIGS. 9A-C. GID1a contains a functional SIM motif in the N-terminal region. a, amino acid positions of two putative SIMs (SUMO interacting motifs) in the GID1a N-terminal domain (SEQ ID NO: 59). Lower panel, far-western assays of two peptides corresponding to SIM A (SEQ ID NO: 60) and SIM B (SEQ ID NO: 58). […] Number indicates molecular mass (kDa). Non-transgenic, wild-type extracts (wt) were used as a negative control. c, mean root growth of 10 days old seedlings in the presence of 100 mM NaCl expressed as a inhibition (%) relatively to the untreated controls. Error bar=s.e.m. n=16.
Peptides corresponding to the putative SIMs in GID1 were purchased from Cambridge Research Biochemicals. 1 μg of each peptide was spotted on a PVDF membrane. Membranes were washed in 100% Ethanol, equilibrated in TBST (25 mM Tris HCl, pH 8.0, 150 mM NaCl, 0.05% Tween 20) and blocked in TBST-Milk 5%. Peptides were probed overnight at 4° C. with recombinant His:proAtSUMO1 (10 μg/ml), washed and subsequently probed with SUMO1 antibodies for standard chemoluminescence-based detection.

GID1a [1] = target: T1, GID1a; test: SPR (Biacore 2000) on immobilised GID1a; assay type: binding
Experimental: FIG. 17. SUMO inhibits GID1a binding to RGA-DELLA protein Interaction between RGA alone with GID1a (red) and, RGA and SUMO1 (AtS1, blue) with GID1a both in the presence of GA3. […] Method: SPR was carried out on a Biacore 2000 instrument at 25° C. Purified GID1a was amine-coupled to a CM5 sensor chip (GE Healthcare). Flow cell 1 was blocked using ethanolamine and used as reference. Approx 500 RU of GID1a was bound to flow cells 2 and 3. All binding assays were carried out in HBS-EP buffer (10 mM HEPES pH 7.5, 150 mM NaCl, 1 mM EDTA, 1 mM DTT, 0.005% P20) at a flow rate of 20 μl/min using 180 second injections followed by 180 s of dissociation in HBS-EP. Each condition was run in duplicate using proteins at 100 μg/ml in HBS-EP (containing 100 μM GA3 as appropriate). Regeneration used 10 mM glycine pH 1.5 at 30 μl/min for 30 s.
FIGS. 18A and B. GID1a—SUMO Interaction Data Sensorgram of interaction between SUMO1 (AtS1) with GID1a.

GID1a [2] = target: T1, GID1a; test: GST pull down assay with GST:GID1a; assay type: binding; details: presence or absence of GA3 (10 μM)
Experimental: FIGS. 4A-F. SUMOylated DELLA binds GID1 independently from GA. a, crossspecies alignment of SIM B in the GID1 protein amino terminal extension (grey). Alignment discloses SEQ ID NOS 50-55, respectively, in order of appearance. b, GST pull down assay between His:AtSUMO1 and GST:GID1a or GST in the presence (+) or absence (−) of GA3 (10 μM). Asterisk indicates a cross-reacting band. c, GST pull down assay between plant-derived GFP:RGA proteins with recombinant GST:GID1a or GST. d, mean germination rates (percentage of visible green cotyledons) of wild type (wt), ots1 ots2 double mutants and transgenic lines (T4). n=40-80 for each treatment/genotype combination. Error bar=s.d. of three biological replicates. e, images of NaCl-grown seedlings. Bar=1 cm f, model for the SUMOylation-dependent DELLA accumulation. For recombinant proteins, affinity purified GST:GID1a (0.1 μg) or GST were mixed with His:AtSUMO1 (0.1 μg) and incubated in 1× reaction buffer (Gamborg's B5—minimal organics, 50 mM NaCl, 0.05% Igepal CA-630, 1 mM DTT, 50 mM Tris HCl, pH 7.5). GA3 was added at a final concentration of 10 μM. Proteins were pulled-down using the μMACS GST Isolation Kit, according to the manufacturers' instruction (Miltenyi biotech). […]

[3] = target: T2, SUMOylated GFP:RGA (plant-derived)

T3 sequence (P55852 whole entry): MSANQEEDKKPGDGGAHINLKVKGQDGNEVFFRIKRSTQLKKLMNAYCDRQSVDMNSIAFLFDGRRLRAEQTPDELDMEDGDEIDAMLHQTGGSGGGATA

| SIM-SUMO1 interaction (far-western) (SUMO1) | interaction with SUMO1 (peptide array) (SUMO1) | Molecule | binding to GST:GID1a (GST pull down) (GID1a [2]) | other results |
| --- | --- | --- | --- | --- |
| strongly reduced SIM-SUMO1 interaction | reduction in interaction | SIM B V22A: SIM B peptide with substitution of a hydrophobic amino acid for an alanine residue (VVPLNTWALISN) | – | – |
| Binding between the SIM and SUMO1 occurs | shown to be a genuine SIM | SIM B: peptide corresponding to putative SUMO interacting motif B in the GID1a N-terminal domain (SEQ ID NO: 58) (VVPLNTWVLISN; listed as Arabidopsis thaliana) | – | – |
| – | – | AtS1: Arabidopsis small ubiquitin-like modifier SUMO1, recombinant (protein) MSANQEEDKKPGDGGAHINLKVKGQDGNEVFFRIKRSTQLKKLMNAYCDRQSVDMNSIAFLFDGRRLRAEQTPDELDMEDGDEIDAMLHQTGG | can bind to SUMO1 from Arabidopsis in a GA-independent manner | binding of AtS1 to GID1a (SPR sensorgram) (GID1a [1]; 25° C., HBS-EP buffer, proteins at 100 μg/ml): binding and saturation of AtS1 to GID1a followed by disassociation; effect on RGA binding to GID1a (SPR combined response) (GID1a [1]; RGA and AtS1 together, in the presence of GA3 (100 μM)): combined response (blue) is reduced in the presence of AtS1 |
| – | – | SUMOylated RGA: plant-derived SUMOylated form of GFP:RGA DELLA protein (protein, left off: large carriers, plant-derived SUMOylated form of GFP:RGA DELLA protein) chain 1: MKRDHHQFQGRLSNHGTSSSSSSISKDKMMMVKKEEDGGGNMDDELLAVLGYKVRSSEMAEVALKLEQLETMMSNVQEDGLSHLATDTVHYNPSELYSWLDNMLSELNPPPLPASSNGLDPVLPSPEICGFPASDYDLKVIPGNAIYQFPAIDSSSSSNNQNKRLKSCSSPDSMVTSTSTGTQIGGVIGTTVTTTTTTTTAAGESTRSVILVDSQENGVRLVHALMACAEAIQQNNLTLAEALVKQIGCLAVSQAGAMRKVATYFAEALARRIYRLSPPQNQIDHCLSDTLQMHFYETCPYLKFAHFTANQAILEAFEGKKRVHVIDFSMNQGLQWPALMQALALREGGPPTFRLTGIGPPAPDNSDHLHEVGCKLAQLAEAIHVEFEYRGFVANSLADLDASMLELRPSDTEAVAVNSVFELHKLLGRPGGIEKVLGVVKQIKPVIFTVVEQESNHNGPVFLDRFTESLHYYSTLFDSLEGVPNSQDKVMSEVYLGKQICNLVACEGPDRVERHETLSQWGNRFGSSGLAPAHLGSNAFKQASMLLSVFNSGQGYRVEESNGCLMLGWHTRPLITTSAWKLSTAAY chain 2: MSANQEEDKKPGDGGAHINLKVKGQDGNEVFFRIKRSTQLKKLMNAYCDRQSVDMNSIAFLFDGRRLRAEQTPDELDMEDGDEIDAMLHQTGG | could bind to GST:GID1a even in the absence of GA | – |
| – | – | His:OTS1 (protein) MTKRKKEVIDVDCSEKKDFVIDWSSAMDKEDEVPELEIVNTTKPTPPPPPTFFSDDQTDSPKLLTDRDLDEQLERKKAILTLGPGLPDKGEKIRLKIADLEEEKQRRVLEGSKMEVDRSSKVVSSTSSGSDVLPQGNAVSKDTSRGNADSKDTSRQGNADSKEVSRSTFSAVFSKPKTDSQSKKAFGKELEDLGCERRKHKAGRKPVTRLSNGWRLLPDVGKAEHSAKQFDSGLKESKGNKKSKEPYGKKRPMESSTYSLIDDDDDDDDDDDNDTSGHETPREWSWEKSPSQSSRRRKKSEDTVINVDEEEAQPSTVAEQAAELPEGLQEDICYPTRDDPHFVQVCLKDLECLAPREYLTSPVMNFYMRFLQQQISSSNQISADCHFFNTYFYKKLSDAVTYKGNDKDAFFVRFRRWWKGIDLFRKAYIFIPIHEDLHWSLVIVCIPDKKDESGLTILHLDSLGLHSRKSIVENVKRFLKDEWNYLNQDDYSLDLPISEKVWKNLPRRISEAVVQVPQQKNDFDCGPFVLFFIKRFIEEAPQRLKRKDLGMFDKKWFRPDEASALRIKIRNTLIELFRVSDQTE | – | in vitro deSUMOylation of immunoprecipitated GFP:RGA (anti-SUMO1 immunoblot) [3]: dramatic reduction of the higher molecular weight, anti-SUMO1 cross-reacting bands only in the tubes containing wild-type OTS1 |
